{
  "source": "paper PMC12499412",
  "about": "“Engineering DNA Origami Captors for TGFβ1 Sequestration to Enhance Tumor Immune Modulation and Therapy”",
  "binders": {"B1": {"name": "Cy5-a'-Apt (ssDNA)", "DNA": "TCGCTCGGCTTCACGAGATTCGTGTCGTTGTGTCCTGTACCCGCCTTGACCAGTCACTCTAGAGCATCCGGACTGTAGATGGAGTGTGGTGTGAAG", "modifications": "phosphorothioates at A and C bases (positions marked * in Table S3)"}},
  "key": {"TGFβ1 (active, mature)": {"biological_target": "TGFβ1 (active, mature) (human, UniProt P01137 279-390)", "sequence (P01137 279-390)": "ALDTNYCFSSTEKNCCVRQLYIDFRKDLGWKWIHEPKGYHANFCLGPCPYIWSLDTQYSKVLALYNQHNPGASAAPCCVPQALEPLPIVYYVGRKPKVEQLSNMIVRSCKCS", "test": "MST; 37 °C, 2 h; MST: 30 nM Cy5-a'-Apt final with 45 pM (4.5 pM in Fig S3 legend) to 1.5 uM protein, 37 °C, 2 h; specificity MST 5 nM aptamer, 0.25 uM protein; buffer, salt and", "conditions": "protein: commercial; chain copies: 2; label: 5'-Cy5; annealed 95 °C 5 min, 4 °C 30 min"}, "IFN-γ": {"biological_target": "IFN-γ (human, UniProt P01579 24-166)", "sequence (P01579 24-166)": "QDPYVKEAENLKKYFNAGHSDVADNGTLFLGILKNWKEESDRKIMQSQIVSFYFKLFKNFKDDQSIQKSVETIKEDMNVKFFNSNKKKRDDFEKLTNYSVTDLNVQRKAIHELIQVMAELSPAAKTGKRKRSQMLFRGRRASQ", "test": "MST; aptamer:protein 1:50; MST: 30 nM Cy5-a'-Apt final with 45 pM (4.5 pM in Fig S3 legend) to 1.5 uM protein, 37 °C, 2 h; specificity MST 5 nM aptamer, 0.25 uM protein; buffer, salt and", "conditions": "protein: commercial; chain copies: 2; label: 5'-Cy5; annealed 95 °C 5 min, 4 °C 30 min"}},
  "data": [
    {"binder": "B1", "values": [
      {"measurement": "Kd", "setting": "TGFβ1 (active, mature)", "result": 28, "unit": "nM"},
      {"measurement": "binding result", "setting": "IFN-γ", "result": "no binding"}
    ]}
  ]
}
